Experimental findings from the supplement of paper PMC9170038 are described below.

The subject of this series is MS2 coat protein. Description: apparent KD of MS2 coat protein; designed switch direction (-1 OFF switch, 1 ON switch): -1; higher = weaker reporter binding. The method, boiled down:
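An oligonucleotide input, 200 uM small-molecule ligand, or no input was present during titration of SNAP-549-labelled MS2 coat protein, which was doubled from 0.7 or 1.5 nM to 3 µM. Designed RNA switches had been transcribed on Illumina chips by stalled E. coli RNA polymerase. Apparent KD per design is the median over clusters of curves fitted to normalised cluster fluorescence.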

The mark [1] stands for this setting: input ligand: microRNA oligo, concentration not stated.
[2] abbreviates: Eterna round: R95, input ligand: FMN 200 uM.
The mark [3] stands for this setting: Eterna round: R95, input ligand: microRNA oligo, concentration not stated.
The mark [4] stands for this setting: Eterna round: R95, input ligand: none.

With “CACACGUAAGGAUAUACAACGGAAACGGGCGCGCGGGCCUCACAUGAGGAUCACCCAUGUAGAAGGUGCACGGG [Eternabot (Original) Solution 18] (Eterna round: R97, puzzle: Exclusion 2)”, the “apparent KD of MS2 coat protein” value is, setting by setting: (input ligand: FMN 200 uM) 41.7 nM; (input ligand: none) 50.3 nM.
On the same counts, the results for “CACAGGAGACGGAGAUCCAACAUGAGGAUCACCCAUGUCUCAAAAGCUUUUUGCUUGUCUUAUCCUCCUCUCUUGAC [Mat - Sensor, turn-off var - Eli Mod - D60] (Eterna round: R97, puzzle: Sensor, turn-off variant 1)” are 26 nM and 28.1 nM.
The like results for “CACAUCAAAGGAUAUCUGGACCAAAACAUGAGGAUCACCCAUGUAUGAACAUGGCUCGACGGAGAAGGUUGGCUUC [Eternabot (L1) Solution 51] (Eterna round: R97, puzzle: Exclusion 5)” were, in that order, 86.2 nM and 79.3 nM.
On the same counts, the results for “CACCCUUCAGGAUAUACAUGAGGAUCACCCAUGUGUUCCAGCUAGGAAACUAGCAAAUGUAGAAGGGAAGGGUG [Mat - Exclusion 3 - JL Mod - D5] (Eterna round: R97, puzzle: Exclusion 3)” are 452 nM and 108 nM.
For the sequence “CACCGUAACAGAGGAUAUGAAACAUGAGGAUCACCCAUGUAAUAAAUGAGAAUUUCGAAUGUACCUCAGAAGGCUGAAACCGGC [Ostricism 82 - Jieux - Exclusion NG 2] (Eterna round: R96, puzzle: Exclusion NG 2)”, the “apparent KD of MS2 coat protein” value by setting is: (input ligand: FMN 200 uM) 56.8 nM; under setting [1], 31.9 nM; (input ligand: none) 43 nM.
With “CACCGUUACAGAGGAUAUCUUACAUGAGGAUCACCCAUGUAAUAAAUGAGAAUUUCGGAUGUAUGAGAGAAGGCUGGAAUCGGC [Ostricism 38 - Jieux - Exclusion NG 2] (Eterna round: R96, puzzle: Exclusion NG 2)”, the “apparent KD of MS2 coat protein” value under setting [1] was found to be 16.3 nM.
For the sequence “CACCGUUACAGAGGAUAUGGUACAUGAGGAUCACCCAUGUAAUAAAUGAGAAUUUCGGAUGUAUUCCAGAAGGCUGUAAUCGGC [Ostricism 65 - Jieux - Exclusion NG 2] (Eterna round: R96, puzzle: Exclusion NG 2)”, the “apparent KD of MS2 coat protein” value is 74.9 nM (input ligand: FMN 200 uM), 34.1 nM under setting [1] and 53.5 nM (input ligand: none).
Regarding “CACCGUUAGAGAGGAUAUCGUACAUGAGGAUCACCCAUGUAAUAAAUGAGAAUUUCGGAUGUAUGCGAGAAGGCUCGAAUCGGC [Ostracism 33 - Jieux - Exclusion NG 2] (Eterna round: R96, puzzle: Exclusion NG 2)”, the “apparent KD of MS2 coat protein” value under setting [1] came out at 38.6 nM.
In the case of “CACCUGAACACAGGAUAUCAUACAUGAGGAUCACCCAUGUAAUAAAUGAGAAUUUCGAAUGUAAUUGAGAAGGGUGGAUAAGGC [Ostricism 90 - Jieux - Exclusion NG 2] (Eterna round: R96, puzzle: Exclusion NG 2)”, the “apparent KD of MS2 coat protein” value runs as follows: (input ligand: FMN 200 uM) 97.8 nM; under setting [1], 34.6 nM; (input ligand: none) 41.1 nM.
On the same counts, the results for “CACCUGAACUCAGGAUAUCAUACAUGAGGAUCACCCAUGUAAUAAAUGAGAAUUUCGAAUGUAAUUGAGAAGGGAGAAUAAGGC [Ostricism 98 - Jieux - Exclusion NG 2] (Eterna round: R96, puzzle: Exclusion NG 2)” are 88.8 nM, 33.8 nM and 38.8 nM.
In the case of “CACCUGAAGUCAGGAUAUCAUACAUGAGGAUCACCCAUGUAAUAAAUGAGAAUUUCGAAUGUAAUUGAGAAGGGACAAUAAGGC [Ostricism 97 - Jieux - Exclusion NG 2] (Eterna round: R96, puzzle: Exclusion NG 2)”, the “apparent KD of MS2 coat protein” value runs as follows: (input ligand: FMN 200 uM) 93.2 nM; under setting [1], 34 nM; (input ligand: none) 44.2 nM.
For “CACCUGAGAGGAUAUACGUUGAUGUUAUGCUAUGGAAAGUUACAUGAGGAUCACCCAUGUAGAAGGCUCAGGUA [Eternabot (L2) Solution 48] (Eterna round: R97, puzzle: Exclusion 2)”, the “apparent KD of MS2 coat protein” value amounted to 75.4 nM (input ligand: FMN 200 uM) and 18.8 nM (input ligand: none).
The like results for “CACUGGACAGGAUAUGUUCUUGAGCACUUGAGGAUCACCCAAGUCAUCAAGAACUCAGGCACAGAAGGGUUUAUGC [salish99_ex5_r4_012] (Eterna round: R97, puzzle: Exclusion 5)” were, in that order, 24.7 nM and 14 nM.
Regarding “CACUGGACAGGAUAUGUUCUUGAGCACUUGAGGAUCACCCAAGUCAUCAAGAACUCAGGCACAGAAGGGUUUAUGG [salish99_ex5_r4_013] (Eterna round: R97, puzzle: Exclusion 5)”, the “apparent KD of MS2 coat protein” value came out at 38.9 nM (input ligand: FMN 200 uM) and 16.9 nM (input ligand: none).
For the sequence “CACUGGACAGGAUAUGUUCUUGAGCACUUGAGGAUCACCCAAGUCAUCAAGAACUCAGGCACAGAAGGGUUUAUGU [salish99_ex5_r4_014] (Eterna round: R97, puzzle: Exclusion 5)”, the “apparent KD of MS2 coat protein” value amounted to 44.5 nM (input ligand: FMN 200 uM) and 15.8 nM (input ligand: none).
Regarding “CAGAAACAUGAGGAUCACCCAUGUGAGGAUAUGAAAAAGAAAAGAAAAGAAAGAAGAAUCAGAAGGCACAAAGG [salish99-ex1_r3_081] (puzzle: Exclusion 1)”, the “apparent KD of MS2 coat protein” value runs as follows: under setting [2], 39.9 nM; under setting [3], 30.8 nM; under setting [4], 38.5 nM.
“CAGAACUGAGGAUAUACAUGAGGAUCACCCAUGUGUUCCAGCUAGGAGACUAGCAUAUGUAGAAGGCAGUUCUG [Mat - Exclusion 3 - JL Mod - D11] (Eterna round: R97, puzzle: Exclusion 3)”: the “apparent KD of MS2 coat protein” value turned out to be 587 nM (input ligand: FMN 200 uM) and 359 nM (input ligand: none).
The like results for “CAGAAGGGAGGAUAUACAUGACCGUUUUAAUGGUUUUUAGUACAUGAGGAUCACCCAUGUAGAAGGCCCGAACU [EX2 B.23] (Eterna round: R97, puzzle: Exclusion 2)” were, in that order, 51 nM and 21.8 nM.
The like results for “CAGAGGAGACGGAGAUCCAACAUGAGGAUCACCCAUGUCUCAAAAGCUUUUUGCUUGUCUUAUCCUCCUCUCUUCAC [Mat - Sensor, turn-off var - Eli Mod - D59] (Eterna round: R97, puzzle: Sensor, turn-off variant 1)” were, in that order, 27.1 nM and 28.1 nM.
The like results for “CAGAUGGGUAACUACACCCACAUGAGGAUCACCCAUGUACACAUAGCUUACGCUCGUCUUAAGCGUGUUUUCGUAGC [Eternabot (L2) Solution 10] (Eterna round: R97, puzzle: Sensor, turn-off variant 1)” were, in that order, 32 nM and 33.4 nM.
“CAGCCCUGAGGAUAUCCCUCCUUGUACAUGAGGAUCACCCAUGUUCUCCUCUGGGCUUUGGGAGAAGGCAGAUCUC [Megrez-6.9] (Eterna round: R97, puzzle: Exclusion 5)”: the “apparent KD of MS2 coat protein” value reads like this: (input ligand: FMN 200 uM) 41.1 nM; (input ligand: none) 46.5 nM.
“CAGCCUUGAGUUAGGAUAUGCGAUCGUGUAGACGAGCAGAAGGGACAUGAGGAUCACCCAUGUGAAAUAAUUAA [Begeti] (puzzle: Brourd's mod of Exclusion 4)”: the “apparent KD of MS2 coat protein” value is, setting by setting: under setting [2], 18.3 nM; under setting [3], 13.2 nM; under setting [4], 13.4 nM.
For “CAGCUGAAAGUCAGGAUAUCUAGAGCGAUAGCUCUAGAGAAGGGACAUGAGGAUCACCCAUGUGAUCACAGCUG [BmEx4/4-A4] (Eterna round: R97, puzzle: Brourd's mod of Exclusion 4)”, the “apparent KD of MS2 coat protein” value was 408 nM (input ligand: FMN 200 uM) and 1980 nM (input ligand: none).
The like results for “CAGCUGAAAGUCAGGAUAUCUAGAGCUUCGGCUCUAGAGAAGGGACAUGAGGAUCACCCAUGUGAUUACAGCUG [BmEx4/6-A1] (Eterna round: R97, puzzle: Brourd's mod of Exclusion 4)” were, in that order, 108 nM and 60.6 nM.
Turning to “CAGCUGAAAGUGAGGAUAUCUAGAGCUUCGGCUCUAGAGAAGGCACAUGAGGAUCACCCAUGUCUCAACAGCUG [BmEx4/1-A1] (Eterna round: R97, puzzle: Brourd's mod of Exclusion 4)”, the “apparent KD of MS2 coat protein” value came to 59.5 nM (input ligand: FMN 200 uM) and 16.9 nM (input ligand: none).
As for “CAGCUGAAAGUGAGGAUAUCUAGAGCUUCGGCUCUAGAGAAGGCACAUGAGGAUCACCCAUGUGAUCACAGCUG [BmEx4/7-A1] (Eterna round: R97, puzzle: Brourd's mod of Exclusion 4)”, the “apparent KD of MS2 coat protein” value (input ligand: FMN 200 uM) is 633 nM and the “apparent KD of MS2 coat protein” value (input ligand: none) was found to be 356 nM.
On the same counts, the results for “CAGCUGAAUGUCAGGAUAUCUAGAGCUGCGGCUCUAGAGAAGGGACAUGAGGAUCACCCAUGUCACUCCAGCUG [BmEx4/3-B3] (Eterna round: R97, puzzle: Brourd's mod of Exclusion 4)” are 21.3 nM and 16.4 nM.
For the sequence “CAGCUGAAUGUGAGGAUAUUACGAGCGAUAGCUCGUGAGAAGGCACAUGAGGAUCACCCAUGUCUCAACAGCUG [BmEx4/2-B4] (Eterna round: R97, puzzle: Brourd's mod of Exclusion 4)”, the “apparent KD of MS2 coat protein” value by setting is: (input ligand: FMN 200 uM) 552 nM; (input ligand: none) 38.6 nM.
With “CAGGACUGAGGAUAUGCGCGGACAAGAUCCUCAAUCCCAAAACAUGAGGAUCACCCAUGUAGAAGGCAGAAAUA [Edbein] (puzzle: Exclusion 2)”, the “apparent KD of MS2 coat protein” value runs as follows: under setting [2], 32.9 nM; under setting [3], 35.4 nM; under setting [4], 31 nM.
